In assay [1] the target is recombinant human Ang2 (human) (UniProt O15123). Nature of the assay: blocking ELISA: Ang2 coated on the plate, binding of recombinant human Tie2 is blocked.
For a further assay, the target named is human TGFβ1 (human) (UniProt P01137).
In assay [2] the target is His tagged human Angiopoietin-2 (human) (UniProt O15123). Nature of the assay: bio-layer interferometry, rhAng2-His.
Sequence of His tagged human Angiopoietin-2 (human) (O15123 19-496 limits assumed): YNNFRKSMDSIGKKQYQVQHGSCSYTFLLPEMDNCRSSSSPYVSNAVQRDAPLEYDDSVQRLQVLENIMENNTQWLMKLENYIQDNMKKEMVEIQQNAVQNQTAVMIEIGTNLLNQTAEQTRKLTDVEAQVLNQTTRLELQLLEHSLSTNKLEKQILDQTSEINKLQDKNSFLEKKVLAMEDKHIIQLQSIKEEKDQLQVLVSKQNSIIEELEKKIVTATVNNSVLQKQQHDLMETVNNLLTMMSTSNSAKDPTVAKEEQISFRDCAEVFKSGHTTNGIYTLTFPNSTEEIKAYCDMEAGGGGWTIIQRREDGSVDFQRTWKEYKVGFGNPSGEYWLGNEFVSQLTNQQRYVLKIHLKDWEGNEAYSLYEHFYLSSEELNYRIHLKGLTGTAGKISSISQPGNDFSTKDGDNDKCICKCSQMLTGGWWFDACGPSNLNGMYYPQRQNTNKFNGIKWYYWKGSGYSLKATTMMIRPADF

Sequence of recombinant human Ang2 (human) (O15123 19-496 limits assumed): as above
Sequence of human TGFβ1 (human) (P01137 279-390 limits assumed): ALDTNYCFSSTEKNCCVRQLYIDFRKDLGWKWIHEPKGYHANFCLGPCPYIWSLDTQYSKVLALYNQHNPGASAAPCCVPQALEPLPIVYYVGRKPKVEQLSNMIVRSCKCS

For the substance bevacizumab-trebananib, the IC50 in assay [1] was 0.57 nM.
“TGFβ1 RII-Fc (from UniProt P37173 24-159) (Fc fusion)” returned an IC50; luciferase signal of TGFβ/SMAD SBE Reporter-HEK293 cells stimulated with human TGFβ1 with human TGFβ1 (human) of 2.02 nM.
In assay [2], trebananib (Fc fusion) returned a Kd of 1.23 nM, a koff of 0.000146 s⁻¹ and an on-rate constant (kon) of 119000 M⁻¹ s⁻¹. Besides, the IC50 in assay [1] is 0.5 nM.
